Substitutions are numbered along the chain they refer to. One block for each binder: values may come before it.
Target: T1, human wild type Sortilin on S18-HEK cells (human, UniProt Q99523 78-831)
T1 sequence: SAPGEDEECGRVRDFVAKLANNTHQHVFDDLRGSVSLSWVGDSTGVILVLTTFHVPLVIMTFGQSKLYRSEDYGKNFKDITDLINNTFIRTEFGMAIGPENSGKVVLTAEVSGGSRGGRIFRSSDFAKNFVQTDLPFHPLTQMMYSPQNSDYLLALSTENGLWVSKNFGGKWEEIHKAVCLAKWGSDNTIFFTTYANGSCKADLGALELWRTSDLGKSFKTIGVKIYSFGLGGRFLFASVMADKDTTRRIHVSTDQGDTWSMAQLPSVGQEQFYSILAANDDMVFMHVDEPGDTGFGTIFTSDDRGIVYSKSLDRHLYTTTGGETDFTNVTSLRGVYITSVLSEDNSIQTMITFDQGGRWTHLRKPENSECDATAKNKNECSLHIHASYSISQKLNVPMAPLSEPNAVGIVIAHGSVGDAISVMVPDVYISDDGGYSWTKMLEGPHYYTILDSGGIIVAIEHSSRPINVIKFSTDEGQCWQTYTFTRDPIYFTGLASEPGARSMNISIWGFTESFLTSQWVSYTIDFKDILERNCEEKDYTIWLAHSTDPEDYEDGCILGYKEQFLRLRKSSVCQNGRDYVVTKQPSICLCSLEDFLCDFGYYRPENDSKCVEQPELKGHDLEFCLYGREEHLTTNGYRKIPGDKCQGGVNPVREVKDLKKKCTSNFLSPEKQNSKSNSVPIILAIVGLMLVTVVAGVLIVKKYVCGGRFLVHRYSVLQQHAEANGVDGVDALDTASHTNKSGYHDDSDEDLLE
Assay: cell-based or functional assay

B3: 849 (antibody, V domains shown)
VH: EVQLLESGGGLVQPGGSLRLSCAASGFTFNTFAMNWVRQAPGKGLEWVSAISGSGGSTYYADSVKGRFTISRDNSKNTLYLQMNSLRAEDTAVYYCAALVRGVRDAFDIWGQGTMVTVSS
VL: not shown
extracellular PGRN in medium of Sortilin over-expressing HEK cells (ELISA), % of untreated control: 149%

B4: 088 (antibody, V domains shown)
VH: EVQLLESGGGLVQPGGSLRLSCAASGFTFSTFAMSWVRQAPGKGLEWVSAISGSGGGTYYADSVKGRFTISRDNSKNTLYLQMNSLRAEDTAVYYCATYIVATIADAFDIWGQGTMVTVSS
VL: not shown
extracellular PGRN in medium of Sortilin over-expressing HEK cells (ELISA), % of untreated control: 121%

B5: 562 (antibody, V domains shown)
VH: B4 VH with G57S, K76E, T98S, Y99P, V101T, A102V, T103V, I104R, A105G, D106E
VL: not shown
extracellular PGRN in medium of Sortilin over-expressing HEK cells (ELISA), % of untreated control: 139%

B8: 093-01 (antibody, V domains shown)
VH: VVQLLESGGGLVQPGGSLRLSCAASGFTFSSYAMSWVRQAPGKGLEWVSAISGSGGSTYYADSVKGRFTISRDNSMHTLFLQINSLRAEDTAVYYCVAIAAAGTNYFDYWGQGTLVTVSS
VL: not shown
extracellular PGRN in medium of Sortilin over-expressing HEK cells (ELISA), % of untreated control: 116%

B9: 093-05 (antibody, V domains shown)
VH: B8 VH
VL: not shown
extracellular PGRN in medium of Sortilin over-expressing HEK cells (ELISA), % of untreated control: 140%

B10: 1276 (antibody, V domains shown)
VH: EVQLLESGGGLVQPGGSLRLSCAASGFTFNTFAMNWVRQAPGKGLEWVSAITGSGGSTYYADSVKGRFTISRDNSKNTLYLQMNSLRAEDTAVYYCATPITVVRGVSAFDIWGQGTMVTVSS
VL: not shown
extracellular PGRN in medium of Sortilin over-expressing HEK cells (ELISA), % of untreated control: 163%

B11: 1289 (antibody, V domains shown)
VH: B10 VH with N30S, T31S, N35S, T52S, Y80S, V102L, S107G
VL: not shown
extracellular PGRN in medium of Sortilin over-expressing HEK cells (ELISA), % of untreated control: 117%

Other lines, results leading:

extracellular PGRN in medium of Sortilin over-expressing HEK cells (ELISA), % of untreated control: 166%
B1: 044 (antibody, V domains shown)
VH: EVQLLESGGGLVQPGGSLRLSCAASGFTFSSYAMSWVRQAPGKGLEWVSAISGSGGNTYYADSVKGRSTISRDNSKNTLYLQMNSLRAEDTAVYYCASMVRGVFINFDYWGQGTLVTVSS
VL: not shown

extracellular PGRN in medium of Sortilin over-expressing HEK cells (ELISA), % of untreated control: 140%
B2: 531 (antibody, V domains shown)
VH: EVQLLESGGGLVQPGGSLRLSCAASGFTFSRYVMSWVRQAPGKGLEWVSTISGSGGSTYYADSVKGRFTISRDNSKNTLFLQMNSLRAEDTAVYYCAEGAFGAFDIWGQGTMVTVSS
VL: not shown

extracellular PGRN in medium of Sortilin over-expressing HEK cells (ELISA), % of untreated control: 139%
B6: 566 (antibody, V domains shown)
VH: EVQLLESGGGLVQPGGSLRLSCVASGFTFSTFAMSWVRQAPGKGLEWVSAISGSGGSTYYADSVRGRFTVSRDNSKNTLYLQMNSLRAEDTAVYYCASPITMVRGEAFDIWGQGTMVTVSS
VL: not shown

extracellular PGRN in medium of Sortilin over-expressing HEK cells (ELISA), % of untreated control: 125%
B7: 924 (antibody, V domains shown)
VH: QVQLQESGPGLVKPSQTLSLTCTVSGGSISSGNYYWNWIRQHPGKGLEWIGYIYYSGSTYYNPSLKSRVTISVDTSKNQFSLKLNSVTSADTAVYYCAALITSQNFFFDYWGQGTLVTVSS
VL: not shown
